Results published in the nanobody polyreactivity screen of Harvey et al. (2022).

test: yeast display, Sf9 membrane polyspecificity reagent, FACS + sequencing; frameworks hold sequencing errors
Outline: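 Synthetic nanobody libraries on Saccharomyces cerevisiae BJ5465 were galactose-induced for 36–48 hours, stained 1 hour at 4 °C with 10% biotinylated, detergent-solubilized Sf9 membrane reagent and enriched on streptavidin microbeads. FACS then separated cells into low and high (top ~1%) gates by anti-HA (expression) and streptavidin (reagent binding) fluorescence. Genes were colony-PCR amplified, MiSeq 2 × 250 sequenced and CDR-length filtered. A clone's polyreactivity label is that of its gate of origin.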

Row | Sequence | polyreactivity (PSR sort gate)
1 | QVQHVESGGGLVQAGGSLRLSCAASGFTFLNYSMGWYRQAPGKERELVAAISFSTGRTYYADSVKGRFTISRDNAKNTVYLQMNSLKPEDTAVYYCNAERGFSDYWGQGTQVTVSS | high polyreactivity
2 | QVQHVESGGGLVQAGGSLRLSCAASGFTFTAYAMGWYRQAPGKERELVAAISYRGGRTNYAYSVKGRFTISRDNAKNTVYLQMNSLKPEDTAVYYCAARPRISTREMDYWGQGTKVTVSS | high polyreactivity
3 | QVQHVESGGGLVQAGGSLRLSCAASGFTFYSYAMGWYRQSPGKERELVANITIGGSTYADSVKGRFTISRENAKNTVYLQMNSLKPEDTAVYYCAKQYGGRYGYWGQGTQVTVSS | low polyreactivity
4 | QVQHVESGGGLVQAGGSLRLSCAASGGIFSIYTRGWYRQAPGKERELVAAITSGGNTNYADSVKGRFTISRDNAKNTVYLQMNSLKPEDTAVYYCAKTYTEYSVTRSGARMDYWGQGTQVTVSS | low polyreactivity
5 | QVQHVESGGGLVQAGGSLRLSCAASGGIFVANAMGWYRQAPGKERELVAAISRSGGSTYYADSVKGRFTISRDNAKNTVYLQMNSLKPEDTAVYYCAAKSRRQYTVGLTSDYWGQGTQVTVSS | low polyreactivity
6 | QVQHVESGGGLVQAGGSLRLSCAASGGTFRWNAMGWYRQAPGQERELVAAITKSGGSTYYADSVKGRFTISRDNAKNTVYLQMNSLKPEDTAVYYCATDYLRRRDYWGQGTQVTVSS | high polyreactivity
7 | QVQHVESGGGLVQAGGSLRLSCAASGIIFGGNAMGWYRQAPGKERELVAGISGSGASTYYADSVKGRFTISRDNAKNTVYLQMNSLKPEDTAVYYCAADGYPGDDYWGQGTQVTVSS | high polyreactivity
8 | QVQHVESGGGLVQAGGSLRLSCAASGIIFGSNVMGWYRQAPGKERELVAAISYSGASTYYADSVKGRFTISRDNAKNTVYLQMNSLKPEDTAVYYCAADGHRNGYYYHEYDSWGQGTQVTVSS | low polyreactivity
9 | QVQHVESGGGLVQAGGSLRLSCAASGIIFIGNAMGWYRQAPGKEGALVAANTDSGGRTYYADSVKGRFTISRDNAKNSVYLQMNCLKPEDTAVYYCARDRGKNTPYDYWGQGTLVTVSS | low polyreactivity
10 | QVQHVESGGGLVQAGGSLRLSCAASGIIIKFYAMGWYRKAPVKERELVATITFSSGTTYYADSVKGRFTMSRDNAKTTVYFQMNSLKPEDTAVYYCAASTLPAWPYDGPAGPRYDYWGQGTQVTVSS | low polyreactivity
11 | QVQHVESGGGLVQAGGSLRLSCAASGITFSYYAMGWYIQAPGKEREFVAAISWSGGSTYYADSVKGRFTISRDNAKNTVYLQMNSLKPEVTAVYYCAADRYPYGLDYWGQGTQVTVSS | high polyreactivity
12 | QVQHVESGGGLVQAGGSLRLSCAASGLIFSKNVMGWYRQARGKEREFVAAISQRGGSTYYADSVKGRFTISRDNAKNTVYVQMNSLKPEDTAVYYCAADNTVSHEDFWGQGTQVTVSS | high polyreactivity
13 | QVQHVESGGGLVQAGGSLRLSCAASGLIFWLNAMGWYRHEPGKEREMVATITAGGDDTNYADPVKGRFTISRDNAKNTVYLQMNSLKPEDTAVYYCAKSRTRSGHYGYDYWGQGTQVTVSS | low polyreactivity
14 | QVQHVESGGGLVQAGGSLRLSCAASGLILVYYAMGWYRQAPGKERELVAAITPGGSTKYADSVKGRFTISRDNAKNTVYLQMNSLKPEDTAVYYCAVDGDCHEPGNYIYEYDYWGQGTQVTVSS | low polyreactivity
15 | QVQHVESGGGLVQAGGSLRLSCAASGLTFTYYVKGCYRQAPGKERELVAAITVSGGSTYYADSVKGRFTISRDNAKNTVYLQMNSLKPEDTAVYYCAADAYSGYSDYYWGQGTQVTVSS | low polyreactivity
16 | QVQHVESGGGLVQAGGSLRLSCAASGNNVMGWYRQAPGKDRELVGAISWSGTSTYADSVKGRFTISRVNAKNTVYLKMNSLKPEDTAVYYCAAEQQGRNYRAYRRYDYWGQGTQVTVSS | low polyreactivity

Row | Sequence | polyreactivity (PSR sort gate)
17 | QVQHVESGGGLVQAGGSLRLSCAASGNTFSANAMGWYRQAPVKEREFVASITWSGGSTYYADSVKGRFTFSRDNAKNTVYLQMNSLKPEDTAVYYCAAESWFKYDYWGQGTQVTVSS | low polyreactivity
18 | QVQHVESGGGLVQAGGSLRLSCAASGRIFGVYVMGWYRQAPGKERELVAAITGGGSTYYADSVKGRFTISRDNAKNTVYLQMNSLKPEDTAVYYCAARYLVTYGHQQRYYYWGQGTQVTVSS | high polyreactivity
19 | QVQHVESGGGLVQAGGSLRLSCAASGRIFPYYAMGWYRQAPGKEREFVAAITKRGGSTSYADSVKGRFTISRDNAKNTVYLQMNSLKPEDTAVYYCAAAGVYYGVRGTTYAYDYWGQGTQVTVSS | low polyreactivity
20 | QVQHVESGGGLVQAGGSLRLSCAASGRIFRYNAMGWYRQAPGKERELVAAITNGGSTNYADSVKGRFTISRDNAKNTVYLQMNSLKPEDTAVYYCNAQGRRYSQRYYYWGQGTQVTVSS | high polyreactivity
21 | QVQHVESGGGLVQAGGSLRLSCAASGRIFVNYAMGWSRQAPGKERELVAAITYIDSGTYYADSVKGRFTISRDNAKNTVYFQRNSLKPEDTAVYYCAVRLNSDSNRKTQKYGYWGQGTQVTVSS | low polyreactivity
22 | QVQHVESGGGLVQAGGSLRLSCAASGRIFVYYAMGWYRQEPGKERELVATISSGGSTYYADSVKGRFTISRDNAKNTVYLHMNSLKPEDTAVYYCNARDWYLWSTYRSWYDYWGEGTQVTVSS | low polyreactivity
23 | QVQHVESGGGLVQAGGSLRLSCAASGRIFYLNAMGWYREAPGKERELVAAINTSGDSTYYADSVKGRFTISRDNAKNTVYLQMNSLKPVDTAVFYCAAYVIGPDQFIYDYWGQGTQVTVSS | low polyreactivity
24 | QVQHVESGGGLVQAGGSLRLSCAASGRIIYRYAMGWYRQATGKERELVATITWSTTSTYYADSVKGRFTISREYAKNTVYLQMNSLKPVDTAVYYCAASIIPGFRRDPFGYWGQGTQVTVSS | low polyreactivity
25 | QVQHVESGGGLVQAGGSLRLSCAASGRILKPNAMGWYRPAPGKERELVAAIRWRGDITYYADSVKGRFTISRDNAKNTVYLQMNSLKPEDTAVYYCNARTYYRRQKYDYWGQGTKVTVSS | high polyreactivity
26 | QVQHVESGGGLVQAGGSLRLSCAASGRISLSNAMGWYRQAPGKEREFVAAITKRSDRTYYADSVKGRFTISRDNAKNTVYLQMNSLKPEDTAVYYCAAKPLFGTRDDYWGLGTQVTVSS | low polyreactivity
27 | QVQHVESGGGLVQAGGSLRLSCAASGRTFARYTMGWYRQAPGKERELVAVISRSGGSTYYADSVKGRFTISRDNAKNSVYLQMNSVKPEDTAVYYCAAGDFVVSTLEYYYWGQGTQVTVSS | high polyreactivity
28 | QVQHVESGGGLVQAGGSLRLSCAASGRTFDWYAMGRYRQAPGKEMELVAAISSGGSTYYADSVKGRFTISRDNAKNTVYLQMNSLKPEDTAVYYCAAEWHYIYAYDYWGQGTQVTVSS | low polyreactivity
29 | QVQHVESGGGLVQAGGSLRLSCAASGRTFKGYAMGWYRQAPGKESQLVAGISTGGNTNYADSVMGRFTISRDNAKNTVYLQMNSLKPEDTAVYYCNAVYRGFTHYTGYEYWGQGTQVTVSS | high polyreactivity
30 | QVQHVESGGGLVQAGGSLRLSCAASGRTFQWYTLGWYRQAPGKERELVAAISWSGTSTYYADSVKGRFTISRDNEKNTVYLLMNSLKPEDTAVYYCAAKTYPSLFFHYGYWGQGTQVTVSS | low polyreactivity
31 | QVQHVESGGGLVQAGGSLRLSCAASGRTFRSYAMGWYRQAPGKEREFVATITRRGGSTYYADSVKGRFTISRDNAKNTVYLQMNSLKPEDTAVYYCNAVVSSQEYDYWGQGTQVTVSS | high polyreactivity
32 | QVQHVESGGGLVQAGGSLRLSCAASGRTFRYNAMGWSRQAPGKERELVAAISSGDRTNYADSVKGRFTISRDNAKYTVYLQMYSLKPEDTAVYYCAAQTDSYYDFDYWGQGTQVTVSS | low polyreactivity
